Measured values as given in paper PMC6499816, “Molecular determinants regulating selective binding of autophagy adapters and receptors to ATG8 proteins” (Nature Communications, 2019).

Biological target: -L1 (recombinant, BLI) (human), Q9H0R8
Assay: BLI
Conditions: modification not given

Sequence of -L1 (recombinant, BLI) (human), Q9H0R8 (Q9H0R8 whole entry): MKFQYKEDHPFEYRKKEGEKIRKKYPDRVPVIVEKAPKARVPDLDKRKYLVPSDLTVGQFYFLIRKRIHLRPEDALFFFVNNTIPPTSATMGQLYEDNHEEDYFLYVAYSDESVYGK

Kd | Binder
5.2 µM | NISQKSDEEDFDKVEDLPLKLTIY [PCM1 V1956D LIR peptide]
1.1 µM | NISQKSDEEDFVKIEDLPLKLTIY [PCM1 V1958I LIR peptide]
